# Test results from patent US20220111022A1 (IMMATICS BIOTECHNOLOGIES, published 2022).
# B1: ILDSTTIEI (peptide)
# peptide: ILDSTTIEI
# B2: FLGPIVDL (peptide)
# peptide: FLGPIVDL
# B3: GLVDGSSVTV (peptide)
# peptide: GLVDGSSVTV
# B4: HMIDLTIHL (peptide)
# peptide: HMIDLTIHL
# B5: ILDEAKDISF (peptide)
# peptide: ILDEAKDISF
# B6: VLMDGTLKQV (peptide)
# peptide: VLMDGTLKQV
# B7: QLLGRDISL (peptide)
# peptide: QLLGRDISL
# B8: FVDEHTIDI (peptide)
# peptide: FVDEHTIDI
# B9: KLISDMGKDVSA (peptide)
# peptide: KLISDMGKDVSA
# B10: TLIDATWLV (peptide)
# peptide: TLIDATWLV
# B11: TLDATVVEL (peptide)
# peptide: TLDATVVEL
# B12: RLLDTTDVYLL (peptide)
# peptide: RLLDTTDVYLL
# B13: FMNDRSFIL (peptide)
# peptide: FMNDRSFIL
# B14: VLDDTLVIF (peptide)
# peptide: VLDDTLVIF
# B15: RLLEGDFSL (peptide)
# peptide: RLLEGDFSL
# B16: NVDSTILNL (peptide)
# peptide: NVDSTILNL
# B17: ALADLTGTVVNL (peptide)
# peptide: ALADLTGTVVNL
# B18: ILYDGSNIQL (peptide)
# peptide: ILYDGSNIQL
# B19: YIYDGKDMSSL (peptide)
# peptide: YIYDGKDMSSL
# B20: SLFAYPLPDV (peptide)
# peptide: SLFAYPLPDV
# B21: QLMEKVQDV (peptide)
# peptide: QLMEKVQDV
# B22: YMDGTMSQV (peptide)
# peptide: YMDGTMSQV
# B23: KLLDLTVRI (peptide)
# peptide: KLLDLTVRI
# B24: SLLFQDITL (peptide)
# peptide: SLLFQDITL
# B25: ILFDLTHRV (peptide)
# peptide: ILFDLTHRV
# B26: FLLDGTDMFHM (peptide)
# peptide: FLLDGTDMFHM
# B27: FLNLFDHTL (peptide)
# peptide: FLNLFDHTL
# B28: FLGEDISNFL (peptide)
# peptide: FLGEDISNFL
# B29: YLFEDISQL (peptide)
# peptide: YLFEDISQL
# B30: WLIDKSMEL (peptide)
# peptide: WLIDKSMEL
# Molecular target: T1, HLA-A*02:01 (human)
# T1 construct: MHC monomers first loaded with a UV-sensitive peptide (not identified) that is cleaved and exchanged for the test peptide; captured on streptavidin-coated plates and detected with anti-β2m; also called peptide-receptive MHC molecules; MHC class I
# Assay: UV-ligand exchange, anti-b2m ELISA; peptide exchange yield grade
# Source text: Candidate peptides for T cell based therapies according to the present invention were further tested for their MHC binding capacity (affinity). The individual peptide-MHC complexes were produced by UV-ligand exchange, where a UV-sensitive peptide is cleaved upon UV-irradiation and exchanged with the peptide of interest as analyzed. Only peptide candidates that can effectively bind and stabilize the peptide-receptive MHC molecules prevent dissociation of the MHC complexes. To determine the yield of the exchange reaction, an ELISA was performed based on the detection of the light chain (β2m) of stabilized MHC complexes. The assay was performed as generally described in Rodenko et al. (Rodenko et al., 2006).
# 96 well MAXISorp plates (NUNC) were coated over night with 2 μg/ml streptavidin in PBS at room temperature, washed 4× and blocked for 1 h at 37° C. in 2% BSA containing blocking buffer. Refolded HLA-A*02:01/MLA-001 monomers served as standards, covering the range of 15-500 ng/ml. Peptide-MHC monomers of the UV-exchange reaction were diluted 100-fold in blocking buffer. Samples were incubated for 1 h at 37° C., washed four times, incubated with 2 μg/ml HRP conjugated anti-β2m for 1h at 37° C., washed again and detected with TMB solution that is stopped with […]. Absorption was measured at 450 nm. Candidate peptides that show a high exchange yield (preferably higher than 50%, most preferred higher than 75%) are generally preferred for a generation and production of antibodies or fragments thereof, and/or T cell receptors or fragments thereof, as they show sufficient avidity to the MHC molecules and prevent dissociation of the MHC complexes.
row,Binder,peptide exchange yield
1,B1,≥ 75%
2,B2,≥ 75%
3,B3,≥ 75%
4,B4,50 to 75%
5,B5,50 to 75%
6,B6,≥ 75%
7,B7,≥ 75%
8,B8,50 to 75%
9,B9,50 to 75%
10,B10,≥ 75%
11,B11,≥ 75%
12,B12,≥ 75%
13,B13,≥ 75%
14,B14,50 to 75%
15,B15,≥ 75%
16,B16,≥ 75%
17,B17,≥ 75%
18,B18,≥ 75%
19,B19,50 to 75%
20,B20,≥ 75%
21,B21,50 to 75%
22,B22,50 to 75%
23,B23,≥ 75%
24,B24,≥ 75%
25,B25,≥ 75%
26,B26,50 to 75%
27,B27,≥ 75%
28,B28,≥ 75%
29,B29,≥ 75%
30,B30,≥ 75%
